For one substance, Kd and binding signal (fold higher Hfq needed than for GlmZ) results are on record in PMC4737144.

A word on the Kd: it is the concentration at which binding is half-saturated. Low values mean tighter binding, high ones weaker binding.

In data set [1] the test system is Strep-RapZ (Escherichia coli). Nature of the data set: EMSA. (In EMSA bound probe runs differently from free probe, usually more slowly.)
Another data set has as its system Hfq (Escherichia coli). As to the kind of experiment: EMSA.

For GlmY, the Kd in data set [1] was 30 nM. This substance showed a binding signal (fold higher Hfq needed than for GlmZ) with Hfq (Escherichia coli) of 10.
